Experimental data reported in patent EP4722249A1 (AIMED BIO INC., dated 2026).
Substitutions are numbered along the chain they refer to.

Legend:
[1] = biological target: T1, human CD200R1 on cells (HH, Jurkat-CD200R1, U937-CD200R1) (human) (UniProt Q8TD46); assay: flow cytometry, HH cells
T1 sequence (looked up): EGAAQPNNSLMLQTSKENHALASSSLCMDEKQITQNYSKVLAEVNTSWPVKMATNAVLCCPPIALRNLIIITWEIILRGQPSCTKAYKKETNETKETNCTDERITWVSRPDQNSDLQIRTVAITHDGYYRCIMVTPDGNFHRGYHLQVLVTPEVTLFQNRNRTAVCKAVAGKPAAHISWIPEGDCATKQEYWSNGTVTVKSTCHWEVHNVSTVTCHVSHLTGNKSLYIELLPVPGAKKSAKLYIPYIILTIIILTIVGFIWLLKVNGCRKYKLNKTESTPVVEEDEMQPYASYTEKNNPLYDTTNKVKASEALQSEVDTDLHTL

[2] = biological target: T1, human CD200R1 on cells (HH, Jurkat-CD200R1, U937-CD200R1) (human); assay: flow cytometry, U937-CD200R cells
[3] = biological target: T1, human CD200R1 on cells (HH, Jurkat-CD200R1, U937-CD200R1) (human); assay: cell-based or functional assay
[4] = biological target: T1, human CD200R1 on cells (HH, Jurkat-CD200R1, U937-CD200R1) (human); assay: flow cytometry, Jurkat-CD200R cells
[5] = biological target: T2, human CD200R1 recombinant protein (human) (UniProt Q8TD46); assay: ELISA of hybridoma clones on human CD200R1
T2 sequence (looked up): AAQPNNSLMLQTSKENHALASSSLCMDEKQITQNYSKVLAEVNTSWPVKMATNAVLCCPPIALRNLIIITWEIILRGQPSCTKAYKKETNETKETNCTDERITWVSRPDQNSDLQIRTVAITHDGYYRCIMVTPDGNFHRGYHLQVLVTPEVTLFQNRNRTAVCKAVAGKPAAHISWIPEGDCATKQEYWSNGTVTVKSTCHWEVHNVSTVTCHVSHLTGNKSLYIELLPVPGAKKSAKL

[6] = biological target: T3, mouse CD200R1 protein (R&D systems, 2554-CD) (mouse, UniProt Q9ES57 26-238); assay: ELISA on coated mouse CD200R1 protein
T3 construct: the same entry is used
T3 sequence (looked up): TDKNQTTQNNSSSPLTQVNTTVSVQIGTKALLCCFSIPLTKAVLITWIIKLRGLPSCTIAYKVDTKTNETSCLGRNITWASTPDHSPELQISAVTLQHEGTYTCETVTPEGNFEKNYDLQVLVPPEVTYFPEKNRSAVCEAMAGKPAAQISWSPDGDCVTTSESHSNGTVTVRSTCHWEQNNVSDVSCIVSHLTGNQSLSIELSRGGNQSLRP

LY3454738 (US 2020/0087395, I-4P, Eli Lilly) (antibody)
EC50 [1]: 82.7 nM
EC50 [2]: 152 nM
EC50 (nM), degree of signal transduction by the Dok2 protein, Jurkat-CD200R1 reporter cells [3]: > 10000 nM
IC50 (nM) of IL-6 suppression, LPS-treated U937-CD200R1 cells [3]: 1.72 nM
IC50 (nM) of TNF-α suppression, LPS-treated U937-CD200R1 cells [3]: 6.03 nM
IL-6 (pg/ml), LPS-treated U937-CD200R1 cells, log [Ab] (M) -7 [3]: 523 pg/ml
IL-6 (pg/ml), LPS-treated U937-CD200R1 cells, log [Ab] (M) -8 [3]: 1330 pg/ml
IL-6 (pg/ml), LPS-treated U937-CD200R1 cells, log [Ab] (M) -9 [3]: 2670 pg/ml
IL-6 (pg/ml), LPS-treated U937-CD200R1 cells, log [Ab] (M) -10 [3]: 3380 pg/ml
IL-6 (pg/ml), LPS-treated U937-CD200R1 cells, log [Ab] (M) -11 [3]: 3550 pg/ml
IL-6 (pg/ml), LPS-treated U937-CD200R1 cells, log [Ab] (M) -12 [3]: 4530 pg/ml
RLU (a.u.), phospho-Dok2 luminescence, Jurkat-CD200R1 reporter cells, antibody dose 0.05 nM [3]: 9260 a.u.
RLU (a.u.), phospho-Dok2 luminescence, Jurkat-CD200R1 reporter cells, antibody dose 0.10 nM [3]: 8400 a.u.
RLU (a.u.), phospho-Dok2 luminescence, Jurkat-CD200R1 reporter cells, antibody dose 0.20 nM [3]: 8000 a.u.
RLU (a.u.), phospho-Dok2 luminescence, Jurkat-CD200R1 reporter cells, antibody dose 0.39 nM [3]: 8960 a.u.
RLU (a.u.), phospho-Dok2 luminescence, Jurkat-CD200R1 reporter cells, antibody dose 0.78 nM [3]: 8900 a.u.
RLU (a.u.), phospho-Dok2 luminescence, Jurkat-CD200R1 reporter cells, antibody dose 1.56 nM [3]: 9100 a.u.
RLU (a.u.), phospho-Dok2 luminescence, Jurkat-CD200R1 reporter cells, antibody dose 3.13 nM [3]: 9470 a.u.
RLU (a.u.), phospho-Dok2 luminescence, Jurkat-CD200R1 reporter cells, antibody dose 6.25 nM [3]: 8930 a.u.
RLU (a.u.), phospho-Dok2 luminescence, Jurkat-CD200R1 reporter cells, antibody dose 12.5 nM [3]: 13000 a.u.
RLU (a.u.), phospho-Dok2 luminescence, Jurkat-CD200R1 reporter cells, antibody dose 25 nM [3]: 22700 a.u.
RLU (a.u.), phospho-Dok2 luminescence, Jurkat-CD200R1 reporter cells, antibody dose 50 nM [3]: 25600 a.u.
TNF-α (pg/ml), LPS-treated U937-CD200R1 cells, log [Ab] (M) -7 [3]: 472 pg/ml
TNF-α (pg/ml), LPS-treated U937-CD200R1 cells, log [Ab] (M) -8 [3]: 1040 pg/ml
TNF-α (pg/ml), LPS-treated U937-CD200R1 cells, log [Ab] (M) -9 [3]: 1480 pg/ml
TNF-α (pg/ml), LPS-treated U937-CD200R1 cells, log [Ab] (M) -10 [3]: 3760 pg/ml
TNF-α (pg/ml), LPS-treated U937-CD200R1 cells, log [Ab] (M) -11 [3]: 4950 pg/ml
TNF-α (pg/ml), LPS-treated U937-CD200R1 cells, log [Ab] (M) -12 [3]: 5490 pg/ml
EC50 [4]: 43.5 nM

B1: 1F1 (antibody, V domains shown)
VH: QVQLQQPGAEFVKPGAPVKLSCKASGYTFTSYWMNWVKQRPGRGLEWIGRIDPADSEIHYNQKFKDKATLTVDKSSSTAYIQFSSLTSEDSAVYYCARSGGWLPGFAYWGQGTLVTVSA
VL: ENVLTQSPAIMSASPGEKVTMTCSASSSLIYMHWYQQKSSTSPKLWIYDTSKLASGVPGRFSGSGSGNSYSLTINSMEAEDVATYYCFQGSGYPLMYTFGGGTKLEIK
ELISA O.D. [5]: > 1.5 O.D.

B2: 1H10 (antibody, V domains shown)
VH: QVQLQQPGAELVKPGTSVKLSCKASGYNFTSYWINWVKLRPGQGLEWIGDINPGSGSTNYNEKFRSKATLTVGTSSSTAYMQLSSLASEDSALYYCAREDYYGSRFFYWGQGTLVTVSA
VL: DVVMTQTPLSLPVSLGDQASISCRSSQSLVHSNGNTYLHWYLQKPGQSPKLLIYKVSNRFSGVPDRFSGSGSGTDFTLKISRVEAEDLGVYFCSQSTHVTFGAGTKLELK
ELISA O.D. [5]: > 1.5 O.D.

B3: 3G4 (antibody, V domains shown)
VH: B1 VH with F11L, Y27F, F29L, A54S, I58T, F83L, S84T
VL: B1 VL with S26R, L29V, I30S, S40R, N75S, Y93D
ELISA O.D. [5]: > 1.5 O.D.

B4: 5E9 (antibody, V domains shown)
VH: QVQLQQSGAELARPGASVKLSCKASGYTFTSYWMQWVKQRPGQGLEWIGAIYPGDGDTRYTQKFKGKATLTADKSSSTAYMQLRSLASEDSAVFYCARGGVTTLVPYFFDYWGQGATLTVSS
VL: DVLMTQTPLSLPVSLGDQASISCRSSQSIVHSNGNTYLEWYLQKPGQSPKLLIYKVSNRFSGVPDRFSGSGSGTDFTLKISRVEAEDLGVYYCFQGSHVPPTFGGGTKLEIK
ELISA O.D. [5]: > 1.5 O.D.

B5: 6A8 (antibody, V domains shown)
VH: B1 VH with F11L, A54S, I58T, F83L
VL: B1 VL with I30S, H33L, N75S, A83G, Y93N
ELISA O.D. [5]: > 1.5 O.D.

B6: 6A10 (antibody, V domains shown)
VH: QLQQSGAELVRSGASVKLSCTASGFNIKDYYLHWIKQRPEQGLEWIGWIDPENGDTEYAPKFQGKATMTADTSSNTAYLQLISLTSEDAAVYYCFAGGSYWGQGTSVTVSS
VL: DIVMTQSPSSLSVSAGEKVTMSCKSSQSLLNSGNQKNYLAWYQQKPGQPPKLLIYGASTRESGVPDRFTGSGSGTDFTLTISSVQAEDLAVYYCQNDHSYPYTFGGGTKLEIK
ELISA O.D. [5]: > 1.5 O.D.

B7: 6C3 (antibody, V domains shown)
VH: QVQLQQPGAELVRPGASVKLSCKASAYTFTSYWMNWVKQRPEQGLEWIGRIDPYDSETHYNQKFKDKAILTVDKSSSTAYMQLSSLTSEDSAVYYCARVDGNHLFDYWGQGTTLTVSS
VL: DIKMTQSPSSMYASLGERVTITCKASQDINSYLSWFQQKPGKSPKTLIYRANRLVDGVPSRFSGSGSGQDYSLTISSLEYEDMGIYYCLQYDEFPYTFGGGTKLEIK
ELISA O.D. [5]: > 1.5 O.D.

B8: P001015 (antibody, V domains shown)
VH: EVQLLESGGGLVQPGGSLRLSCAASGFTFSSYDMSWVRQVPGKGLEWVSWISHGGGSIYYADSVKGRFTISRDNSKNTLYLQMNSLRAEDTAVYYCARDAPAYSAPLFDYWGQGTLVTVSS
VL: QSVLTQPPSASGTPGQRVTISCSGSSSNIGNNAVNWYQQLPGTAPKLLIYYDSNRPSGVPDRFSGSKSGTSASLAISGLRSEDEADYYCAAWDDSLSGYVFGGGTKLTVL
binding result [6]: no binding (tested: up to 300 nM)
